Test results reported in patent US20160168209A1.
One block for each substance: values may come before it.

Tests used:
[1] = molecular target: human immunoglobulin G preparation separated from human plasma (Gammagard, Baxter) (human); experiment: SPR (Biacore 3000), human IgG on CM5 chip, ligand flowed at 16-128 nM, 1:1 fit, 25 C
[2] = molecular target: Gamma globulin (Nichiyaku), used as a human IgG (human); experiment: affinity chromatography, dynamic binding capacity at 5% breakthrough; ligand on HiTrap NHS agarose at 9.5 mg/mL-gel
[3] = molecular target: Gamma globulin (Nichiyaku), used as a human IgG (human); experiment: affinity chromatography, dynamic binding capacity at 5% breakthrough; ligand on HiTrap NHS agarose at 12.5 mg/mL-gel
[4] = molecular target: Gamma globulin (Nichiyaku), used as a human IgG (human); experiment: affinity chromatography, dynamic binding capacity at 5% breakthrough; ligand on HiTrap NHS agarose at 6.4 mg/mL-gel
[5] = molecular target: Gamma globulin (Nichiyaku), used as a human IgG (human); experiment: affinity chromatography, dynamic binding capacity at 5% breakthrough; ligand on cross-linked cellulose beads at 11.0 mg/mL-gel
[6] = molecular target: Gamma globulin (Nichiyaku), used as a human IgG (human); experiment: affinity chromatography, dynamic binding capacity at 5% breakthrough; ligand on HiTrap NHS agarose at 14.1 mg/mL-gel
[7] = molecular target: Gamma globulin (Nichiyaku), used as a human IgG (human); experiment: affinity chromatography, dynamic binding capacity at 5% breakthrough; ligand on HiTrap NHS agarose at 6.8 mg/mL-gel
[8] = molecular target: Gamma globulin (Nichiyaku), used as a human IgG (human); experiment: affinity chromatography, dynamic binding capacity at 5% breakthrough; ligand on HiTrap NHS agarose at 13.5 mg/mL-gel
[9] = molecular target: Gamma globulin (Nichiyaku), used as a human IgG (human); experiment: affinity chromatography, dynamic binding capacity at 5% breakthrough; ligand on HiTrap NHS agarose at 6.9 mg/mL-gel
[10] = molecular target: Gamma globulin (Nichiyaku), used as a human IgG (human); experiment: affinity chromatography, dynamic binding capacity at 5% breakthrough; ligand on HiTrap NHS agarose at 8.8 mg/mL-gel
[11] = molecular target: Gamma globulin (Nichiyaku), used as a human IgG (human); experiment: affinity chromatography, dynamic binding capacity at 5% breakthrough; ligand on cross-linked cellulose beads at 11.6 mg/mL-gel
[12] = molecular target: Gamma globulin (Nichiyaku), used as a human IgG (human); experiment: affinity chromatography, dynamic binding capacity at 5% breakthrough; ligand on HiTrap NHS agarose at 5.7 mg/mL-gel
[13] = molecular target: Gamma globulin (Nichiyaku), used as a human IgG (human); experiment: affinity chromatography, dynamic binding capacity at 5% breakthrough; ligand on HiTrap NHS agarose at 10.9 mg/mL-gel
[14] = molecular target: Gamma globulin (Nichiyaku), used as a human IgG (human); experiment: affinity chromatography, dynamic binding capacity at 5% breakthrough; ligand on HiTrap NHS agarose at 9.4 mg/mL-gel
[15] = molecular target: Gamma globulin (Nichiyaku), used as a human IgG (human); experiment: affinity chromatography, dynamic binding capacity at 5% breakthrough; ligand on HiTrap NHS agarose at 4.8 mg/mL-gel
[16] = molecular target: human immunoglobulin G preparation separated from human plasma (Gammagard, Baxter) (human); experiment: SPR (Biacore 3000), human IgG on CM5 chip, as in Example 3
[17] = molecular target: Gamma globulin (Nichiyaku), used as a human IgG (human); experiment: affinity chromatography, dynamic binding capacity at 5% breakthrough; ligand on HiTrap NHS agarose at 9.0 mg/mL-gel
[18] = molecular target: Gamma globulin (Nichiyaku), used as a human IgG (human); experiment: affinity chromatography, dynamic binding capacity at 5% breakthrough; ligand on HiTrap NHS agarose at 5.1 mg/mL-gel

Substance: C-K04R/K07R/G29A/S33R/K35R/K42R/K49Q/K50R.4d (designed binder)
Ka [1]: 1e+09 M⁻¹ | 5% antibody dBC [6]: 62.1 mg/mL-gel | 5% antibody dBC [7]: 42.6 mg/mL-gel

Substance: C-G29A/S33E.5d (designed binder)
Ka [1]: 6.3e+09 M⁻¹ | 5% antibody dBC [10]: 50.3 mg/mL-gel | 5% antibody dBC [11]: 36.8 mg/mL-gel | 5% antibody dBC [12]: 38.3 mg/mL-gel | 5% antibody dBC [13]: 54.4 mg/mL-gel

Now from value to substance:

Ka [1]: 1.5e+09 M⁻¹ | 5% antibody dBC [2]: 55.3 mg/mL-gel | 5% antibody dBC [3]: 61.3 mg/mL-gel | 5% antibody dBC [4]: 45.8 mg/mL-gel | 5% antibody dBC [5]: 46.1 mg/mL-gel
Substance: C-K04R/K07R/G29A/S33R/K35R/K42R/K49Q/K50R.5d (designed binder)

Ka [1]: 1.1e+09 M⁻¹ | 5% antibody dBC [8]: 62.1 mg/mL-gel | 5% antibody dBC [9]: 41.8 mg/mL-gel
Substance: C-K04R/K07R/G29A/S33R/K35R/K42R/K49Q/K50R(C-terminal K58R).4d (designed binder)

Ka [1]: 2.1e+09 M⁻¹ | 5% antibody dBC [14]: 73.4 mg/mL-gel | 5% antibody dBC [15]: 56.5 mg/mL-gel
Substance: C-K04R/K07R/G29A/S33L/K35R/K42R/K49R/K50R.3d (designed binder)

Ka [16]: 2.2e+09 M⁻¹ | 5% antibody dBC [17]: 66.2 mg/mL-gel | 5% antibody dBC [18]: 49.1 mg/mL-gel
Substance: C-K04R/K07R/G29A/S33L/K35R/K42R/K49R/K50R/(K58R except for C-terminal).3d (designed binder)
